The source of these data is paper PMC11316107, “PPTC7 antagonizes mitophagy by promoting BNIP3 and NIX degradation via SCF^FBXL4” (EMBO Reports, 2024).

What all share (settings): both partners purified
The target in experiment [1] is T1, PPTC7 (31-304), wild type (human, UniProt Q8NI37 31-304).
T1 construct: human PPTC7, residues 31-304, from pGEX-6P-2 GST-PPTC7(31-304); GST removed with PreScission protease; assayed with 10 mM MnCl2 in the buffer; also called PPTC7 + Mn2+; Protein Phosphatase Targeting COQ7; source: E. coli BL21(DE3), purified (glutathione-sepharose, PreScission cleavage, Superdex 75 gel filtration); not shown: GST, N-terminal, cleaved
T1 sequence (looked up): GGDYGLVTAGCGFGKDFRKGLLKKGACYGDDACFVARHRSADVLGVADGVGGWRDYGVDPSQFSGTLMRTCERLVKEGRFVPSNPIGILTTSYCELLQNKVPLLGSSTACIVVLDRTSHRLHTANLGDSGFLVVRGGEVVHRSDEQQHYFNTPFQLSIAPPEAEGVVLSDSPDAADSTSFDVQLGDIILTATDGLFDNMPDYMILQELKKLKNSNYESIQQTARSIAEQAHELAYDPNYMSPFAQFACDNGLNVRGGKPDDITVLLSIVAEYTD
In words: ITC; 500 µM peptide (syringe) titrated into 25 µM PPTC7 (cell); 25 °C; 50 mM HEPES pH 7.5, 300 mM NaCl, 10 mM MnCl2, 2 mM β-mercaptoethanol; MicroCal PEAQ-ITC.

Experiment [2] concerns the target T2, recombinant PPTC7 (31-304) wild type (human, UniProt Q8NI37 31-304).
T2 construct: PPTC7, human, residues 31-304; pGEX-6P-2 vector; also called PPTC7 wild-type; GST-PPTC7(31-304); source: E. coli BL21(DE3), purified (glutathione-sepharose, PreScission cleavage, Superdex 75)
T2 sequence (looked up): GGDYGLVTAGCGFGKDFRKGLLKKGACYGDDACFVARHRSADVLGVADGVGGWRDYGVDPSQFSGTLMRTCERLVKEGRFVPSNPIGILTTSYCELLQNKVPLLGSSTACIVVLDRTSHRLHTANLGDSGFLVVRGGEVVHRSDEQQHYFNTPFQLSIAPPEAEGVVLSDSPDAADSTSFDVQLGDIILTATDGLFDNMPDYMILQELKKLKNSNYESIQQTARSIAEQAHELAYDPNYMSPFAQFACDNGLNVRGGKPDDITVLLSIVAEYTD
Briefly: ITC; 500 µM peptide titrated into 25 µM PPTC7; 25 °C; 50 mM HEPES pH 7.5, 300 mM NaCl, 10 mM MnCl2, 2 mM β-mercaptoethanol; MicroCal PEAQ-ITC.

In another experiment the target is T3, PPTC7 (31-304) D290N (human, UniProt Q8NI37 31-304, D290N).
T3 construct: human PPTC7, residues 31-304, from pGEX-6P-2 GST-PPTC7(31-304)(D290N); The purification is described for GST-PPTC7 (31-304); also called PPTC7 D290N; PPTC7-D290N; source: E. coli BL21(DE3), purified (glutathione-sepharose, PreScission cleavage, Superdex 75 gel filtration); not shown: GST, N-terminal, cleaved
T3 sequence (looked up): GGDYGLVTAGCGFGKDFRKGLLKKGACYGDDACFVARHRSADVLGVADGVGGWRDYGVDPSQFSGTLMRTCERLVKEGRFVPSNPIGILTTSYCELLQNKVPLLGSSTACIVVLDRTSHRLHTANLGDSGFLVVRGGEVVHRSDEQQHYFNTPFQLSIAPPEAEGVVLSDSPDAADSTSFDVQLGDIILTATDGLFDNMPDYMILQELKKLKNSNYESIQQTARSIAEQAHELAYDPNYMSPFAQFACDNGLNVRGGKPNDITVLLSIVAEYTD
In words: ITC; 500 µM peptide (syringe) titrated into 25 µM PPTC7 (cell); 25 °C; 50 mM HEPES pH 7.5, 300 mM NaCl, 10 mM MnCl2, 2 mM β-mercaptoethanol; MicroCal PEAQ-ITC.

B1: BNIP3(N113-R139) peptide (peptide)
peptide: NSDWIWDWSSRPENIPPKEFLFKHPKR
notes: human BNIP3, residues N113-R139 (Q12983, 194 aa); also called BNIP3 peptide; source: synthetic peptide
With B1, the “stoichiometry N” value in experiment [1] was determined as 1.

B2: NIX peptide (A138-R163) (peptide)
peptide: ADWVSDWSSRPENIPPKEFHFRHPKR
notes: also called BNIP3L(A138-R163); source: synthetic peptide
Take B2: the Kd in experiment [2] was found to be 37.5 µM.

B3: BNIP3L(A138-R163) peptide (peptide)
peptide: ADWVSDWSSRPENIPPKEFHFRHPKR
notes: human NIX (BNIP3L), residues A138-R163; also called NIX; NIX peptide; source: synthetic peptide
As for B3, the “stoichiometry N” value in experiment [1] turned out to be 1. Also, in the experiment with PPTC7 (31-304) D290N, the Kd turned out to be 35.9 ± 1.09 µM and the “stoichiometry N” value was found to be 1.

B4: BNIP3 peptide (N113-R139) (peptide)
peptide: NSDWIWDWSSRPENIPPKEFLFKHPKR
notes: also called BNIP3(N113-R139); source: synthetic peptide
B4: the Kd in experiment [2] was found to be 20.1 µM.
